Results taken from article PMC7392888.

Tested on: O=C(Cc1cccs1)N[C@@H]1C(=O)N2C(C(=O)O)=C(/C=C/c3ccc([N+](=O)[O-])cc3[N+](=O)[O-])CS[C@H]12
Experiment: purified protein
Settings: Zn2+ enzyme; steady-state buffer and pH not given here; King-Altman value from pre-steady-state data listed separately

Substance	Km [µM]	kcat [s⁻¹]
MIM-1 (Novosphingobium pentaromativorans US6-1)	41 ± 10	17 ± 4
SAM-1 (Simiduia agarivorans SA1 = DSM 21679)	20 ± 3	10 ± 5
